The values that follow are results of earlier work, collected in PMC7587574.

Read-outs that look alike come from different tables or passages of the source.

In data set [1] the target is PACAP receptor (PAC1R) (Homo sapiens) (UniProt P41586).
Data set [2] has the same target. This is another data set of the same source.
In data set [3] the target is κ-opioid receptor (Homo sapiens) (UniProt P41145).
Sequence of κ-opioid receptor (Homo sapiens) (P41145 whole entry): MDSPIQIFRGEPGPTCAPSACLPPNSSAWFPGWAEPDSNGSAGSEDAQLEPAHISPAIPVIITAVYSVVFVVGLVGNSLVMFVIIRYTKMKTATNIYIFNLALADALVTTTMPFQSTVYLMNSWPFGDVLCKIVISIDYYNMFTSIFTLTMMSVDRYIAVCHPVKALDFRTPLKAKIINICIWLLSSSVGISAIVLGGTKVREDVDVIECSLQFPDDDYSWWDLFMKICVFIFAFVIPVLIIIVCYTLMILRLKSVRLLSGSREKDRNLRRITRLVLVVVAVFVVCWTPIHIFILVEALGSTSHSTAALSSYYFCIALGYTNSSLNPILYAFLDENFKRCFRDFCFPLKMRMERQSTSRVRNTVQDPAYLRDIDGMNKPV

Sequence of PACAP receptor (PAC1R) (Homo sapiens) (P41586 21-468): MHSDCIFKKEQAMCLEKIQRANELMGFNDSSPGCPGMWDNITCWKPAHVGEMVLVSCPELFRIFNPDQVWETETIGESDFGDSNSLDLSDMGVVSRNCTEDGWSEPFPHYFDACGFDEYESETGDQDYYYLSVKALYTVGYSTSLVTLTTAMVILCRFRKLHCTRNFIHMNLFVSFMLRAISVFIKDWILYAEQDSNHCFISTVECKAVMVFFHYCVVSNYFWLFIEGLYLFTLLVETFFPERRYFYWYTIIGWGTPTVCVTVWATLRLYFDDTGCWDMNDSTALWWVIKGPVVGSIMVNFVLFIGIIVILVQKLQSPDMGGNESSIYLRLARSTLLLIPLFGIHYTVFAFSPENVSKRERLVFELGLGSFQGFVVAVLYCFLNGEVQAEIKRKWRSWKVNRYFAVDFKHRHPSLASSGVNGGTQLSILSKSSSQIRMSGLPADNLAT
Sequence of PACAP (P18509 82-129): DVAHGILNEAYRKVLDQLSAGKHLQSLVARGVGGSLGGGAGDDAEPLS
Sequence of PACAP (truncated) (P18509 137-169): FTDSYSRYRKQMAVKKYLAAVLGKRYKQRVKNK

Usually Kd stands for the free concentration of one partner at which half of the binding sites on the other are occupied at equilibrium, for simple one-to-one binding. With PACAP (from UniProt P18509), in data set [1], the dissociation constant Kd is 3 nM.

Consider PACAP (truncated) (from UniProt P18509), for which the Kd in data set [2] is 18000 nM.

Consider “dynorphin 13-mer fragment (from UniProt P01213)”, for which the Kd in data set [3] was 200 nM.
